Values of other authors as cited in article PMC11409674, “Raffinocyclicin is a novel plasmid-encoded circular bacteriocin produced by Lactococcus raffinolactis with broad-spectrum activity against many gram-positive food pathogens” (Applied and environmental microbiology, 2024).

Assays:
[1] = system: proteases; design: method as in 4 sources, ref 33 = [33]; PMID 21948835; doi:10.1128/AEM.06348-11; 33 Masuda Y Ono H Kitagawa H Ito H Mu F Sawa N Zendo T Sonomoto K Identification and characterization of leucocyclicin Q, a novel cyclic bacteriocin produced by Leuconostoc mesenteroides TK41401 Appl ||| ref 27 = [27]; PMID 21057028; doi:10.1128/AEM.01173-10; 27 Borrero J Brede DA Skaugen M Diep DB Herranz C Nes IF Cintas LM Hernández PE Characterization of garvicin ML, a novel circular bacteriocin produced by Lactococcus garvieae DCC43, isolated from mall ||| ref 30 = [30]; PMID 29177092; doi:10.1099/mgen.0.000134; 30 van Heel AJ Montalban-Lopez M Oliveau Q Kuipers OP Genome-guided identification of novel head-to-tail cyclized antimicrobial peptides, exemplified by the discovery of pumilarin Microb Genom 2017 3 ||| ref 29 = [29]; PMID 18552180; doi:10.1128/AEM.00817-08; 29 Martin-Visscher LA van Belkum MJ Garneau-Tsodikova S Whittal RM Zheng J McMullen LM Vederas JC Isolation and characterization of carnocyclin A, a novel circular bacteriocin produced by Carnobacteri; details: cited from earlier work
[2] = system: L. lactis; design: method as in 7 sources, ref 29 = [29]; PMID 18552180; doi:10.1128/AEM.00817-08; 29 Martin-Visscher LA van Belkum MJ Garneau-Tsodikova S Whittal RM Zheng J McMullen LM Vederas JC Isolation and characterization of carnocyclin A, a novel circular bacteriocin produced by Carnobacteri ||| ref 30 = [30]; PMID 29177092; doi:10.1099/mgen.0.000134; 30 van Heel AJ Montalban-Lopez M Oliveau Q Kuipers OP Genome-guided identification of novel head-to-tail cyclized antimicrobial peptides, exemplified by the discovery of pumilarin Microb Genom 2017 3 ||| ref 31 = [31]; PMID 29030449; doi:10.1128/AEM.01801-17; 31 Borrero J Kelly E O’Connor PM Kelleher P Scully C Cotter PD Mahony J van Sinderen D Plantaricyclin a, a novel circular bacteriocin produced by Lactobacillus plantarum NI326: purification, character ||| ref 32 = [32]; PMID 17464077; doi:10.1099/mic.0.2006/005967-0; 32 Wirawan RE Swanson KM Kleffmann T Jack RW Tagg JR Uberolysin: a novel cyclic bacteriocin produced by Streptococcus uberis Microbiology 2007 153 1619 1630 10.1099/mic.0.2006/005967-0 17464077 ||| ref 27 = [27]; PMID 21057028; doi:10.1128/AEM.01173-10; 27 Borrero J Brede DA Skaugen M Diep DB Herranz C Nes IF Cintas LM Hernández PE Characterization of garvicin ML, a novel circular bacteriocin produced by Lactococcus garvieae DCC43, isolated from mall ||| ...; details: five strains of L. lactis; cited from earlier work

| Substance | sensitivity to proteolytic activity [1] | inhibition of L. lactis strains tested [2] |
| --- | --- | --- |
| lactocyclicin Q | resistant |  |
| plantaricyclin A |  | inhibited all five strains |
| leucocyclicin Q | resistant |  |
